# Measurements: article PMC8299219 (Cell, 2021)
# Substitutions are numbered along the chain they refer to.
# B1: C12B8 (antibody, V domains shown)
# VH: QVQLVESGGGVVQPGRSLGLSCAASGFTFSSYAMHWVRQAPGKGLEWVAVISYDGSNKADSVKGRFTISRDNSNNTLYLQMNSLRAEDTAVYYCAREGVVVTAPLDYWGQGTLVTVSS
# VL: not shown
# B2: C15E7 (antibody, V domains shown)
# VH: QVQLQQWGAGLLKPSETLSRTCAVYGGSFSGYYWTWIRQPPGMALEWIGDINHGGVTNYNPSLKSRVTISVDTSKNQFSLRLTSVTAADTAVYYCARRLLGDPRPASSSLSLRRVSYMDVWDKGTTVTVSS
# VL: DIQMTQSPSSMPASVGDRVTITCRASQSISNYLNWYQQEPGRAPKLLIYGASSLQSGVPSRFGGSGSGTEFTLTITALQPEDSATYYCQQIHGAPPITFGQGTRLEIK
# B3: C53F12 (antibody, V domains shown)
# VH: QVQLVQSGAEVKKPGSSVKVSCKASGGTFSSYAISWVRQAPGQGLEWMGGIIPIFGTANYAQKFQGRVTITADESTSTAYMELSSLRSEDTAVYYCARMYYYVSGSYHYFDYWGQGTLVTVSS
# VL: EIVLTQSPATLSLSPGERATLSCRASQSVSSYLAWYQQKPGQAPRLLIYDASNRATGIPARFSGSGSGTDFTLTISSLEPEDFAVYYCQQRSNWPPALTFGGGTKVEIK
# B4: C102B1 (antibody, V domains shown)
# VH: QVQLVQSGAEVKKPGSSVKVSCKASGGTFSSYAISWVRQAPGQGLEWMGGIIPIFGTANYAQKFQGRVTITADESTSTAYMELSSLRSEDTAVYCCARDRGYCTGGVCSNYYYGIDVWGQGTTVTVSS
# VL: B3 VL with A97S, L98Y, G102Q, V106L
# B5: C83B7 (antibody, V domains shown)
# VH: QVQLVQSGAEVKKPGASVKVSCKASGYTFTSYYLHWVRQAPGQGLEWMGIINPSGGSTSYAQKFQGRVTMTRDTSTSTVYMELRSLRSEDTAVYYCARDSAPRDYDFWSGYYFGVNGKGSSMDVWGQGTTVTVSS
# VL: QSALTQPPSASGSPGQSVTISCTGTSSDVGGYNYVSWYQQHPGKAPKLMIYEVSKRPSGVPDRFSGSKSGNTASLTVSGLQAEDEADYYCSSYAGSNNYVFGTGTKVTVL
# B6: G32A3 (antibody, V domains shown)
# VH: QVQLVQSGAEVKRPGASVKVSCKASGYTFTSYGITWVRQAPGQGLEWMGWISAYNGNTNYAQKLQGRVTMTTDSSTSTAYMELRSLRSDDTAVYYCARTPNSVITMIVVVTQTLDYWGQGTLVTVSS
# VL: QSALTQPASVSGSPGQSITISCTGTSSDVGGYNYVSWYQQHPGKAPKLMIYEVSNRPSGVSNRFSGSKSGNTASLTISGLQAEDEADYYCSSYTSSSTRVFGGGTKLTVL
# B7: C83A4 (antibody, V domains shown)
# VH: QVQLQESGPGLVKPSQTLSLTCTVSGGSISSGGYYWSWIRQHPGKGLEWIGYIYYSGSTYYNPSLKSRVTISVDTSKNQFSLKLTSVTAADTAVYYCASEPTFRQSSISWYHYGMDVWGQGTTVTVSS
# VL: B6 VL with G31R, E52D, R99L, G103T, L107V
# B8: C163D5 (antibody, V domains shown)
# VH: EVQLVESGGGLVQPGGSLRLSCAASGFTFSSYWMHWVRQAPGKGLVWVSRTNSDGSSTNYADSVKGRFTISRDNAKNTLYLQMNSLRAEDTAVYYCARPQFYVWGSDRADYGMDVWGQGTTVTVSS
# VL: B6 VL with Y34S, T94R, R99L
# B9: C12E6 (antibody, V domains shown)
# VH: QVQLQESGSGLVKPSQTLSLTCAVSGGSISSGGYSWSWIRQPPGKGLEWIGYIYHSGSTYYNPSLKSRVTISVDRSKNQFSLKLSSVTAADTAVYYCARSGFLEWLRRVDAFDIWGQGTMVTVSS
# VL: B6 VL with E52D, G66A
# B10: C89A5 (antibody, V domains shown)
# VH: QVQLVESGGGVVQPGRSLRLPCAASGFSFSGYAMHWVRQAPDKGLEWMAVISFDGSTKTYADSVRGRFTISRDNSKNTLYLQIHTLRTEDTAVYYCARGGGGGDGAFDNWGGGTMVTVSS
# VL: DVVMTQSPLSLPVTLGQPASISCRSSQSLVYSDGNTYLIWFQQRPGQSPRRLIYKVSNRDSGVPDRFSGSGSGTDFTLKISRVEADDVGVYYCMQTTHWPYTFGQGTKLEIK
# B11: C53E12 (antibody, V domains shown)
# VH: QVQLVESGGGVVQPGRSLRLSCAASGFTFSSYGMHWVRQAPGKGLEWVAVISYDGSNKYYVDSVKGRFTISRDNSKNTLYLQMNSLRAEDTAVYYCAKGTEIVVVPADYFDYWGQGTLVTVSS
# VL: EIVLTQSPATLSLSPGERATLSCRASQSVSSYLAWYQQKPGQAPRLVIYDASNRATGIPARFSGSGSGTDFTLTISSLEPEDFAVYYCQQRSNWPGFTFGPGTKVDIK
# B12: C12D2 (antibody, V domains shown)
# VH: EVQLVESGGGLVQPGGSLRLSCAASGFTFSSYWMSWVRQAPGKGLEWVANIKQDGSEKYYVDSVKGRFIISRDNAKNSLYLQMNSLRAEDTAVYYCARDQRRFLEWLSYYYYMDVWGKGTTVTVSS
# VL: not shown
# B13: C163E6 (antibody, V domains shown)
# VH: QVQLVESGGGVVQPGRSLRLSCAASGFTFNTYAVYWVRQAPGKGLEWVAVISYDGINKYYADSVKGRFTISRDNSKNTLYLQMNSLRPEDTAVYYCARVKSGSYKGCFDYWGQGTLVTVSS
# VL: not shown
# B14: G32Q6 (antibody, V domains shown)
# VH: EVQLLESGGGLVQPGGSLRLSCAASGFTFSNYAMNWVRQAPGKGLEWVSGISGNGVNTFYADSVKGRFTISRDNSRNTLYLQMNSLRAEDTAVYYCAKAIQTYSNYVLGADYWGQGTLVTVSS
# VL: QSALTQPRSVSGSPGQSVTISCTGTNSDVGNYNFVSWYQQHPGRAPKLMIYDVSKRPSGVPDRFSGSKSDNTASLTISGLQAEDQADYYCCSYATSYTFRVVFGGGTKLTVL
# B15: C18C8 (antibody, V domains shown)
# VH: EVQLVESGGGLVQPGRSLRLSCTTSGFTFGDYAMSWVRQAPGKGLEWVGFIRSKAYGGTTEYAASVKGRFTISRDDSKSIAYLQMNSLKTEDTAVYCCTRGLKVEPYYFDYWGQGTLVTVSS
# VL: not shown
# B16: C83A5 (antibody, V domains shown)
# VH: QVQLVESGGGVVQPGRSLRLSCAASRFTFSSYGMHWVRQAPGKGLEWVAVIWFDGTNKYYADSVKGRFTISRDNSKNTLYLQMNSLRVEDTAVYYCARDGAYYDRSAYYYRLKFYFDFWGQGTLVTVSS
# VL: SYELTQPPSVSVSPGQTARITCSGDALPNQYVYWYHQKPGQAPVLVIYKDSERPSGIPERFSGSSSGTTVTLTISGVQAEDEADYYCQSADSSGNIGVFGGGTKLTVL
# B17: C15C7 (antibody, V domains shown)
# VH: QVQLVESGGGVVQPGRSLRLSCAASGFTFSSYGMHWVRQAPGKGLEWVAVISYDGSNKYYADSVKGRFTISRDNSKNTLYLQMNSLRAEDTAVYYCAKDAYYYDSSGYYPRDYYYYYYYMDVWGKGTTVTVSS
# VL: not shown
# B18: C163E11 (antibody, V domains shown)
# VH: QVQLVESGGGVVQPGRSLRLSCAASGFTFSIYAIHWVRQAPGKGLEWVAVVSYDGSNKYYADSVRGRFTISRDNSKNTLYLQMNSLRADDTAVYYCARDSAGGYSYLFDYWGQGTLVTVSS
# VL: not shown
# B19: C15C12 (antibody, V domains shown)
# VH: EVQLLESGGGLVQPGGSLRLSCAASAFTFTNYDMNWVRQAPGKGLEWVSTISGSGDITYYADFVKGRFTISRDNSKNTLNLQMNSLRADDTAVYYCAKDFARRGYNGYEEKFISMFGGVIADYGMDVWGQGTTVTVSS
# VL: EIVLTQSPTTLSLSPGERVTLSCRASQSISSYLAWYQQKPGQAPRLLIYRASNRATGISARFSGSGSGTDFTLTISSLEPEDFAVYYCQQRSNWPLTFGGGTKVEIK
# B20: C107A1 (antibody, V domains shown)
# VH: QVQLVESGGGVVQPGRSLRLSCAASGFTFSSYGMHWVRQAPGKGLEWVAVISYDGSNKYYADSVKGRFTISRDNSKNTLYLQMNSLRAEDTAMYYCAKDGSGSYSWFDPWGQGTLVTVSS
# VL: EIVMTQSPATLSVSPGERATLSCRASQSVSSNLAWYQQKPGQAPRLLIYGASTRATGIPARFGGSGSGTEFTLTISSLQSEDFAVYYCQQYNNGFTFGPGTKVDIK
# B21: C7A2 (antibody, V domains shown)
# VH: EVQLLESGGGLVQPGGSLRLSCAASGFIFSNYVVSWVRQAPGKGLEWVSGISVNGDTTFYADSVKGRFTISRDNSKNTLYLQMNSLRAEDTAVYYCAKVRGYCSGGRGCMDVWGQGTTVTVSS
# VL: DIQLTQSPSSLSASVGDRVTITCQASQDIGNTLAWYQQKPGKAPNLLIYDASSLQSGVPSRFSGSVSGTDFTLTITSLQLEDFATYYCQQFNTYPALTFGGGTKVEIK
# B22: C93D10 (antibody, V domains shown)
# VH: QVQLVQSGAEVKKPGASVKVSCKASGYTFTSYYMHWVRQAPGQGLEWMGIINPSGGSTSYAQKFQGRVTMTRDTSTSTVYMELSSLRSEDTAVYYCARDPSSDYDFWSGWGNQYYYYGMDVWGQGTTVTVSS
# VL: DIQLTQSPSFLSASVGDRVTITCRASQGISSYLAWYQQKPGKAPKLLIYAASTLQSGVPSRFSGSGSGTEFTLTISSLQPEDFATYYCQQLNSYPFTFGPGTKVDIK
# B23: C81A10 (antibody, V domains shown)
# VH: QVQLVQSGAEVKKPGSSVKVSCKASGGTFRSYAISWVRQAPGQGLEGMGGIIPIFGTTNYAQKFQGRVTITADESTSTAYMELSSLRSEDTAVYYCARSEWGDGYNQYYFDQWGQGALVTVSS
# VL: DIQMTQSPSSLSAFVGDRVTITCRASQSISRYLNWYQQKPGKAPKVLIYAASSLQSGVPSRFSGSGSGTDFTLTISSLQPEDFATYYCQQSYSTLTFGGGTKVEIK
# B24: C15C9 (antibody, V domains shown)
# VH: QVQLQQWGTGLLKPSETLSLTCAVYGGSFSGYYWTWIRQPPGKGLEWIGEINHSGTTTYNPSLKSRVTISVEKSENQFSLKLNSVTAADTAVYYCARGSRCSSASCLFYYFYYIDVWGKGTTVTVSS
# VL: not shown
# Molecular target: SARS-CoV-2 S ectodomain trimer, prefusion-stabilized, 2P variant (Wrapp et al., 2020) (SARS-CoV-2, Wuhan-Hu-1, UniProt P0DTC2, stabilised)
row,Binder,binding result
1,B1,binds
2,B2,binds
3,B3,binds
4,B4,binds
5,B5,binds
6,B6,binds
7,B7,binds
8,B8,binds
9,B9,binds
10,B10,binds
11,B11,binds
12,B12,binds
13,B13,binds
14,B14,binds
15,B15,binds
16,B16,binds
17,B17,binds
18,B18,binds
19,B19,binds
20,B20,binds
21,B21,binds
22,B22,binds
23,B23,binds
24,B24,binds
